Reference: patent publication US20140056902A1 (Kyowa Kirin, published 2014)
Where a chain is given by its changes, count along the chain named.

T1: human mature dimer BMP9 recombinant protein (manufactured by R&D systems, Cat#3209-BP) (human, UniProt Q9UK05 320-429)
T1 construct: Bought protein; also called human BMP9; human BMP9 recombinant protein (manufactured by R&D systems)
T1 sequence: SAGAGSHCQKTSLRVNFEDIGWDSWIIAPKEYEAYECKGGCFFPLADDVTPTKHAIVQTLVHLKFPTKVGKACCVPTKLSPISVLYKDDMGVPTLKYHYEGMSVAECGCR

B1: 3B7-3-3 antibody (antibody, mouse IgG1, V domains shown)
VH: EVQLQQSRPELVKPGASVKISCKASDYSFTDYYMNWVKQSPDKSLEWIGEISPSSGGTTYNQKFKAKATLTVDKSSSTAYMQLKSLTSEDSAVYYCATRGAFYFDYWGQGTALTVSS
VL: QIVLTQSPALMSAFPGEKVTMTCSASSSVSYMYWYQQKPRSSPKPWIYLTSNLASGVPTRFSGSGSGTSYSLTISSMEAEDAATYFCQQWSSNPRTFGGGTKLEIKR
notes: Mouse monoclonal from a BMP9 KO mouse hybridoma; mouse IgG1 heavy chain, kappa light chain
B2: human mature dimer BMP10 recombinant protein (manufactured by R&D systems, Cat#2926-BP) (ligand)
chain: NAKGNYCKRTPLYIDFKEIGWDSWIIAPPGYEAYECRGVCNYPLAEHLTPTKHAIIQALVHLKNSQKASKACCVPTKLEPISILYLDKGVVTYKFKYEGMAVSECGCR
B3: 10D5-2-3 chimeric antibody (c10D5-2-3 antibody) (antibody, V domains shown)
VH: EVKLEESRGGLVQPGGSMKLSCVASGFTFSNYWMNWVRQSPEKGLEWVAHIRLKSDNYATHYAESVRGRFTISRDDSKSSVFLQMNNLRAEDTGIYYCTGGSNYVFAFWGQGTLVTVSA
VL: not shown
notes: Human chimeric antibody; The V regions were cloned into the humanized antibody expression vector pKANTEX93
B4: 10D5-2-3 antibody-humanized antibody HV7bLV2 (antibody, V domains shown)
VH: EVQLVESRGGLVQPGGSMRLSCAASGFTFSNYWMNWVRQAPGKGLEWVAHIRLKSDNYATHYAESVRGRFTISRDDSKNSVYLQMNSLKTEDTGVYYCTGGSNYVFAFWGQGTLVTVSS
VL: DIVMTQSPDSLAVSLGERATINCRASESVDNYGISFMNWFQQKPGQPPKLLIYAASNQGSGVPDRFSGSGSGTDFTLTISSLQAEDVAVYFCQQSKEVPWTFGQGTKLEIK
notes: Expressed from pKANTEX93
B5: 10D5-2-3 antibody-humanized antibody HV9LV3 (antibody, V domains shown)
VH: B4 VH with N79S, V95I
VL: B4 VL with S81P
notes: Expressed from pKANTEX93
B6: 10D5-2-3 antibody-humanized antibody HV7aLV2 (antibody, V domains shown)
VH: B4 VH with N79S, V81L
VL: B4 VL
notes: Expressed from pKANTEX93
B7: 10D5-2-3 antibody-humanized antibody HV9LV4 (antibody, V domains shown)
VH: B4 VH with N79S, V95I
VL: B4 VL with M4L, F40Y, S81P, L82M, V89M, F91Y
notes: Expressed from pKANTEX93
B8: 10D5-2-3 antibody-humanized antibody HV4bLV6 (antibody, V domains shown)
VH: B4 VH with R8G, M18L, V81L, G94A, V95I
VL: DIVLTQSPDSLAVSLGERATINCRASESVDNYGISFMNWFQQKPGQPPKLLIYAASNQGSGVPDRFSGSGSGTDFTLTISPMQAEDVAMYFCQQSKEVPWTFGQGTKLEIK
notes: Expressed from pKANTEX93
B9: 10D5-2-3 antibody-humanized antibody HV7aLV0 (antibody, V domains shown)
VH: B4 VH with N79S, V81L
VL: B4 VL with F40Y, F91Y
notes: Expressed from pKANTEX93
B10: 10D5-2-3 antibody-humanized antibody HV9LV6 (antibody, V domains shown)
VH: B4 VH with N79S, V95I
VL: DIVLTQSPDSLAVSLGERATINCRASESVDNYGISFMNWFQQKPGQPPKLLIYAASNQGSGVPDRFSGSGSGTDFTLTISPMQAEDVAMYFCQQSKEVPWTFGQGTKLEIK
notes: Expressed from pKANTEX93
B11: 10D5-2-3 antibody-humanized antibody HV9LV2 (antibody, V domains shown)
VH: B4 VH with N79S, V95I
VL: B4 VL
notes: Expressed from pKANTEX93
B12: 10D5-2-3 antibody-humanized antibody HV9LV0 (antibody, V domains shown)
VH: B4 VH with N79S, V95I
VL: B4 VL with F40Y, F91Y
notes: Expressed from pKANTEX93
B13: 10D5-2-3 antibody-humanized antibody HV0LV3 (antibody, V domains shown)
VH: B4 VH with R8G, M18L, A49G, V81L, G94A, T99A, G100R
VL: B4 VL with S81P
notes: Expressed from pKANTEX93
B14: 10D5-2-3 antibody-humanized antibody HV0LV4 (antibody, V domains shown)
VH: B4 VH with R8G, M18L, A49G, V81L, G94A, T99A, G100R
VL: B4 VL with M4L, F40Y, S81P, L82M, V89M, F91Y
notes: Expressed from pKANTEX93

Target: B2
Experiment: ELISA, immobilized antigen (100 ng/mL coat), biotin-labeled antibody at 100 ng/mL, absorbance 450-570 nm
Method: To examine specificity of the obtained antibodies to human BMP9, their binding ability to human BMP9 and human BMP10 having the highest homology to human BMP9 was tested by comparison. First, 100 ng/mL of human mature dimer BMP9 recombinant protein (manufactured by R&D systems, Cat#3209-BP), or human mature dimer BMP10 recombinant protein (manufactured by R&D systems, Cat#2926-BP) prepared in 50 mmol/L NaHCO₃ buffer (manufactured by Wako, Cat#191-01305) was added to a 96-well plate for ELISA (F96 MAXISORP NUNC-IMMUNO PLATE, manufactured by Thermo Fisher Scientific, Cat#442404) at an amount of 50 μL/well, and left at 4° C. overnight for adsorption.
Subsequently, 6D10-1-1 antibody, 10D5-2-3 antibody, 3B7-3-3 antibody, R&D antibody, or anti-BMP10 antibody (manufactured by R&D, Cat#MAB2926) that was labeled with biotin using a Biotin Labeling Kit-NH2 (manufactured by COSMO BIO, Cat#LK03) was prepared at a concentration of 100 ng/mL using 10% Super Block in TBST which was prepared by mixing SuperBlock and TBST at a ratio of 1:9. 50 μL/well thereof was aliquoted as a primary antibody, and left at room temperature for 1 hour.
The plate was washed with TBST five times, and 50 μL/well of the TMB substrate reagent (TMB+ Substrate-Chromogen, manufactured by Dako, Cat#S1599) was added for color-development. When proper color was developed, 50 μL/well of the 1 N sulfuric acid solution (manufactured by Wako, Cat#192-04755) was added, and absorbance (450 nm-570 nm) at a sample wavelength of 450 nm and at a reference wavelength of 570 nm was determined using a plate reader (manufactured by Spectra Max, Molecular Devices).

Row | Binder | binding result
1 | B1 | no binding (tested: 100 ng/mL)

Target: T2, full-length human ALK1 expressed on the reporter cell line ALK1/p(GCCG)12-Luc/HepG2(38.5) (human, UniProt P37023 22-503)
T2 sequence (P37023 22-503 limits assumed): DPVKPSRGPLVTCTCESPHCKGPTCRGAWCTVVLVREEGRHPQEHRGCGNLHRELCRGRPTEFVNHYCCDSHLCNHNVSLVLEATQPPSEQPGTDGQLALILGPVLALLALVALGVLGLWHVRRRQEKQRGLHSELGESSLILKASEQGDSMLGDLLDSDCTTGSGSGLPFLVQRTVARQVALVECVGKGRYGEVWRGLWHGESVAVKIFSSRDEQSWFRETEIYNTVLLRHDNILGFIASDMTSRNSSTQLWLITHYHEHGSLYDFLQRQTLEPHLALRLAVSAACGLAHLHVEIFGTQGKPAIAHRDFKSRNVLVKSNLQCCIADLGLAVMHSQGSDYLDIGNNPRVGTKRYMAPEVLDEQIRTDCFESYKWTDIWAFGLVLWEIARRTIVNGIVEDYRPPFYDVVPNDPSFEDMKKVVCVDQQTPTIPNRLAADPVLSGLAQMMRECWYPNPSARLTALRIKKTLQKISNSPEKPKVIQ
Experiment: cell-based or functional assay

Row | Binder | EC50 (read off the curve); luciferase activity (RLU) of human ALK1 reporter cells, with 3 ug/mL 6D10-1-1 antibody alone (filled square)
2 | B2 | ~0.4 ng/mL

Target: T2, full-length human ALK1 expressed on the …
Experiment: cell-based or functional assay
Remark: another data set of the same source

Row | Binder | EC50 (read off the curve); luciferase activity (RLU) of human ALK1 reporter cells, with 3 ug/mL 10D5-2-3 antibody alone (filled square) | EC50 (read off the curve); luciferase activity (RLU) of human ALK1 reporter cells, with the complex of 3 ug/mL 10D5-2-3 antibody and 2 ng/mL human BMP9 (open triangle) | EC50 (read off the curve); luciferase activity (RLU) of human ALK1 reporter cells, with the complex of 3 ug/mL 10D5-2-3 antibody and 10 ng/mL human BMP9 (open circle)
3 | B2 | ~0.3 ng/mL | ~0.3 ng/mL | ~0.2 ng/mL

Target: T1, human mature dimer BMP9 recombinant …
Experiment: SPR (Biacore T100), antibody captured on anti-human IgG, human BMP9 (R&D 3209-BP) as analyte, 5 concentrations from 1 nM
Method: (§1) For the purpose of comparing binding activity to human BMP9 between c10D5-2-3 antibody and 22 types of 10D5-2-3 antibody-humanized antibodies obtained in Example 22-7, binding activity to human BMP9 recombinant protein (manufactured by R&D systems) was measured by surface plasmon resonance (SPR) using a BiacoreT100 instrument (manufactured by GE Healthcare bioscience).
(§2) Anti-human IgG antibody was immobilized onto a CM5 sensor chip (manufactured by GE Healthcare bioscience) using a Human Antibody Capture Kit (manufactured by GE Healthcare bioscience) in accordance with the accompanying protocol. 0.4 μg/mL of c10D5-2-3 antibody or each humanized antibody was applied to the flow cell onto which anti-human IgG antibody was immobilized, at a flow rate of 10 μL/min for 2 minutes.
(§3) Subsequently, human BMP9 recombinant protein (manufactured by R&D systems, Cat#3209-BP) was subjected to 2-fold serial dilution starting from […] to give 5 concentrations, and applied at a flow rate of 10 μL/min, and association was monitored over 3 minutes and dissociation over 3 minutes at a flow of 10 μL/min. The sensorgram thus obtained was analyzed by BiaEvaluation Software (manufactured by GE Healthcare bioscience) to calculate the rate constant of each antibody.

Row | Binder | Kd | koff | kon
4 | B3 | 4.52 pM | 0.00024 s⁻¹ | 5.32e+07 M⁻¹ s⁻¹
5 | B4 | 4.91 pM | 0.000307 s⁻¹ | 6.25e+07 M⁻¹ s⁻¹
6 | B5 | 3.52 pM | 0.000279 s⁻¹ | 7.91e+07 M⁻¹ s⁻¹
7 | B6 | 9.57 pM | 0.000477 s⁻¹ | 4.98e+07 M⁻¹ s⁻¹
8 | B7 | 6.38 pM | 0.000739 s⁻¹ | 1.16e+08 M⁻¹ s⁻¹
9 | B8 | 11.9 pM | 0.000531 s⁻¹ | 4.46e+07 M⁻¹ s⁻¹
10 | B9 | 9.69 pM | 0.00142 s⁻¹ | 1.47e+08 M⁻¹ s⁻¹
11 | B10 | 5.13 pM | 0.000325 s⁻¹ | 6.34e+07 M⁻¹ s⁻¹
12 | B11 | 3.89 pM | 0.000347 s⁻¹ | 8.91e+07 M⁻¹ s⁻¹
13 | B12 | 6.45 pM | 0.000859 s⁻¹ | 1.33e+08 M⁻¹ s⁻¹

Target: T1, human mature dimer BMP9 recombinant …
Experiment: SPR (Biacore T100), antibody captured on anti-human IgG, human BMP9 as analyte
Method: as §1, §2, §3

Row | Binder | binding result
14 | B13 | no binding (tested: human BMP9 up to 1 nM)
15 | B14 | no binding (tested: human BMP9 up to 1 nM)
